# Results: patent US6322962A, “Sterol-regulated Site-1 protease and assays of modulators thereof” (Board of Regents, The University of Texas System, priority 1999, dated 2001)
# T1: purified S1P(983)-C (Cricetulus griseus, UniProt Q9Z2A8, T875N)
# T1 construct: Truncated S1P (amino acids 1-983); GGR linker (NotI site); made in house; host or cells: SRD-12B cells (mutant CHO cells lacking S1P) stably transfected with pCMV-S1P(983)-Myc-His (TR-3117, 'S1P(983) cells'); secreted into the medium and purified on Ni-NTA
# T1 sequence (Q9Z2A8 187-983 T875N): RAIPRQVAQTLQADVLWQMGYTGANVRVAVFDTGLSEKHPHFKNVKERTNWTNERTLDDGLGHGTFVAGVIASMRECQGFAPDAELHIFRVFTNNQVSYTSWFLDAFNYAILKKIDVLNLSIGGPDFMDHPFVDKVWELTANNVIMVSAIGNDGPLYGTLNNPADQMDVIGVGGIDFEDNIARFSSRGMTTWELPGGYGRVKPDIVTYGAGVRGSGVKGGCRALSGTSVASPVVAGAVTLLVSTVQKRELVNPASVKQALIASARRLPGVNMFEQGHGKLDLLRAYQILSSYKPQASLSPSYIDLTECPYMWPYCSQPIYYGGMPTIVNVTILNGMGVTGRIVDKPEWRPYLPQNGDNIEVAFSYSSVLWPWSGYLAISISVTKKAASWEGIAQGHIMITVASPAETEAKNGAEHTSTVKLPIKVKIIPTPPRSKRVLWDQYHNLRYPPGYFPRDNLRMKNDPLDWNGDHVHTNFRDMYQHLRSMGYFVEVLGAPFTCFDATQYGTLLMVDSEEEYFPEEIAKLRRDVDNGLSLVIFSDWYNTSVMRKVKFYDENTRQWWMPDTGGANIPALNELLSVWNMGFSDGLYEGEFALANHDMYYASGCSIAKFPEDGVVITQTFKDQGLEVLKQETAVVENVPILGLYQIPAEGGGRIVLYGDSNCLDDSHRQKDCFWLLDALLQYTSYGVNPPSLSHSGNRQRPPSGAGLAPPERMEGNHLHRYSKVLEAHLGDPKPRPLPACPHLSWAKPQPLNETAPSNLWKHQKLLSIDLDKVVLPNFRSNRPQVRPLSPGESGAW
# T2: Ac-SGRSVL-MCA (Artificial Sequence)
# T2 sequence (peptide, N-terminal acetyl; C-terminal amide of 7-amino-4-methyl-coumarin (MCA)): SGRSVL
# T3: Boc-RVRR-MCA (Artificial Sequence)
# T3 sequence (peptide, N-terminal Boc; C-terminal amide of 7-amino-4-methyl-coumarin (MCA)): RVRR
# T4: Ac-SGSGRSVL-MCA (Artificial Sequence)
# T4 sequence (peptide, N-terminal acetyl; C-terminal amide of 7-amino-4-methyl-coumarin (MCA)): SGSGRSVL
# T5: Ac-VFRSRR-MCA (Artificial Sequence)
# T5 sequence (peptide, N-terminal acetyl; C-terminal amide of 7-amino-4-methyl-coumarin (MCA)): VFRSRR
# T6: Ac-VFASLK-MCA (Artificial Sequence)
# T6 sequence (peptide, N-terminal acetyl; C-terminal amide of 7-amino-4-methyl-coumarin (MCA)): VFASLK
# T7: Ac-RSVL-MCA (Artificial Sequence)
# T7 sequence (peptide, N-terminal acetyl; C-terminal amide of 7-amino-4-methyl-coumarin (MCA)): RSVL
# T8: Ac-RSLK-MCA (Artificial Sequence)
# T8 sequence (peptide, N-terminal acetyl; C-terminal amide of 7-amino-4-methyl-coumarin (MCA)): RSLK
# T9: Ac-VFRSLK-MCA (Artificial Sequence)
# T9 sequence (peptide, N-terminal acetyl; C-terminal amide of 7-amino-4-methyl-coumarin (MCA)): VFRSLK
# Key:
# [1] = target: T1, purified S1P(983)-C; assay: HPLC assay for S1P activity with 16-amino acid synthetic peptides; type: biochemical, hamster; conditions: 4 h, 37° C.
# Protocol: HPLC Assay for S1P Activity
# Each reaction was carried out in a final volume of […] of assay buffer (see above) containing a 16-amino acid synthetic peptide (final concentration 300 μM); and 3 μg purified S1P(983)-C. After incubation for 4 h at 37° C., the reaction products were separated by reverse-phase HPLC on a 4.6×250-mm RP300 column using a Waters HPLC system. Chromatography was performed in 0.1% (v/v) trifluoroacetic acid at 0.75 ml/min. […] Peptide masses were measured by matrix-assisted laser desorption/ionization (MALDI) mass spectrometry using a Voyager DE time-of-flight mass spectrometer from PerSeptive Biosystems (Framingham, Mass.) with α-cyano-4-hydroxycinnamic acid (Aldrich Chemical, Dorset, UK) as the matrix.
# The failure of S1P(983)-C to cleave the RSVL-MCA peptides (SEQ ID NO:11) might have been due to an inability of the enzyme to recognize the RSVL sequence (SEQ ID NO:11), or alternatively it might be due to the resistance of the peptide-MCA bond to cleavage. To distinguish between these possibilities, the inventors prepared 16-residue peptides composed of the amino acids surrounding the internal cleavage Site-B in S1P (i. e., RSLK, SEQ ID NO:18) or Site-1 in SREBP-2 (i. e., RSVL, SEQ ID NO:11). The peptides were incubated with or without purified S1P(983)-C, and the products were separated by HPLC. […]
# [2] = system: S1P; assay: Immunoblot of processing of S1P to the B and C forms in transfected cells; conditions: S1P(1052) and S1P(983) cells, compactin plus or minus sterols
# Source text: Sterol-regulated cleavage of SREBP-2 in SRD-12B cells expressing full-length or truncated S1P. […] SS denotes signal sequence; Pro denotes the propeptide region of S1P; TM denotes transmembrane domain; Ser414 is the active-site serine residue. […] On day 0, cells were set up for studies at a density of 1×10^6 cells/100-mm dish in medium B supplemented with 5% fetal calf serum. On day 2, the cells were switched to medium B containing 5% newborn calf lipoprotein-deficient serum and the indicated addition: none (FIG. 20B and FIG. 20C, lanes 1,4,7,10); 50 μM compactin and 50 μM mevalonate (FIG. 20B and FIG. 20C, lanes 2,5,8,11); 50 μM compactin, 50 μM mevalonate, and a mixture of 1 μg/ml 25-hydroxycholesterol plus 10 μg/ml cholesterol (FIG. 20B and FIG. 20C lanes 3,6,9,12). […] Aliquots of the 10^5 g membrane fraction (10 μg protein) were subjected to SDS-PAGE and immunoblotted with 0.5 μg/ml of anti-Myc monoclonal antibody 9E10. The filters were exposed to Kodak X-Omat Blue XB-1 film for 1 s at room temperature. […]
# To quantify expression of the transfected S1P, the cells were homogenized, and a crude membrane pellet was subjected to SDS-PAGE and immunoblotted with an antibody against the Myc tag (FIG. 20B). […]
# [3] = system: SREBP-2; assay: Immunoblot of nuclear SREBP-2 in CHO-7, S1P(1052) and S1P(983) cells; type: cell-based, hamster; conditions: CHO-7 cells
# Protocol: FIGS. 20(A-C). […] FIG. 20A. […] FIG. 20B and FIG. 20C. […] FIG. 20B. […] FIG. 20C. […] Molecular mass standards are expressed in kDa.
# The amount was increased when the cells were further deprived of sterols by treatment with compactin (FIG. 20C, lane 2). The band disappeared when the compactin-treated cells were incubated with sterols (FIG. 20C, lane 3). […] In the absence of sterols, nuclear SREBP-2 was found in both the S1P(1052) cells and the S1P(983) cells either in the absence or presence of compactin (FIG. 20C, lanes 7,8,10,11). In both cases nuclear SREBP-2 was abolished by addition of sterols (FIG. 20C, lanes 9 and 12). […] The bottom panel of FIG. 20C confirms that membranes from all of the cells contained the precursor form of SREBP-2.
# [4] = target: T2, Ac-SGRSVL-MCA (Artificial Sequence)
# [5] = target: T3, Boc-RVRR-MCA (Artificial Sequence)
# [6] = target: T4, Ac-SGSGRSVL-MCA (Artificial Sequence)
# [7] = target: T5, Ac-VFRSRR-MCA (Artificial Sequence)
# [8] = target: T6, Ac-VFASLK-MCA (Artificial Sequence)
# [9] = target: T7, Ac-RSVL-MCA (Artificial Sequence)
# [10] = target: T8, Ac-RSLK-MCA (Artificial Sequence)
# [11] = target: T9, Ac-VFRSLK-MCA (Artificial Sequence)
# [12] = target: T9, Ac-VFRSLK-MCA (Artificial Sequence); remark: listed apart in the source
molecule,measurement,setting,value
NH2 -His-Ser-Gly-Ser-Gly-Arg-Ser-Val-Leu-Ser-Phe-Glu-Ser-Gly-Ser-Gly-COOH (H-HSGSGRSVLSFESGSG-OH) [SEQ ID NO:55],cleavage of 16-residue peptide,[1],did cleave
compactin,amounts of the different S1P bands,[2],not altered
same,nuclear SREBP-2,[3],increased
"S1P(983)-C, purified secreted enzyme (enzyme) RAIPRQVAQTLQADVLWQMGYTGANVRVAVFDTGLSEKHPHFKNVKERTNWTNERTLDDGLGHGTFVAGVIASMRECQGFAPDAELHIFRVFTNNQVSYTSWFLDAFNYAILKKIDVLNLSIGGPDFMDHPFVDKVWELTANNVIMVSAIGNDGPLYGTLNNPADQMDVIGVGGIDFEDNIARFSSRGMTTWELPGGYGRVKPDIVTYGAGVRGSGVKGGCRALSGTSVASPVVAGAVTLLVSTVQKRELVNPASVKQALIASARRLPGVNMFEQGHGKLDLLRAYQILSSYKPQASLSPSYIDLTECPYMWPYCSQPIYYGGMPTIVNVTILNGMGVTGRIVDKPEWRPYLPQNGDNIEVAFSYSSVLWPWSGYLAISISVTKKAASWEGIAQGHIMITVASPAETEAKNGAEHTSTVKLPIKVKIIPTPPRSKRVLWDQYHNLRYPPGYFPRDNLRMKNDPLDWNGDHVHTNFRDMYQHLRSMGYFVEVLGAPFTCFDATQYGTLLMVDSEEEYFPEEIAKLRRDVDNGLSLVIFSDWYNTSVMRKVKFYDENTRQWWMPDTGGANIPALNELLSVWNMGFSDGLYEGEFALANHDMYYASGCSIAKFPEDGVVITQTFKDQGLEVLKQETAVVENVPILGLYQIPAEGGGRIVLYGDSNCLDDSHRQKDCFWLLDALLQYTSYGVNPPSLSHSGNRQRPPSGAGLAPPERMEGNHLHRYSKVLEAHLGDPKPRPLPACPHLSWAKPQPLNETAPSNLWKHQKLLSIDLDKVVLPNFRSNRPQVRPLSPGESGAWGGREQKLISEEDLGGEQKLISEEDLGPRFEQKLISEEDLDMHTGHHHHHH","Relative Activity (cleavage of fluorogenic peptide-MCA, AMC liberated) (relative activity)",[4],< 0.1
same,"Relative Activity (cleavage of fluorogenic peptide-MCA, AMC liberated) (relative activity)",[5],< 0.1
same,"Relative Activity (cleavage of fluorogenic peptide-MCA, AMC liberated) (relative activity)",[6],< 0.1
same,"Relative Activity (cleavage of fluorogenic peptide-MCA, AMC liberated) (relative activity)",[7],< 0.1
same,"Relative Activity (cleavage of fluorogenic peptide-MCA, AMC liberated) (relative activity)",[8],< 0.1
same,"Relative Activity (cleavage of fluorogenic peptide-MCA, AMC liberated) (relative activity)",[9],< 0.1
same,"Relative Activity (cleavage of fluorogenic peptide-MCA, AMC liberated) (relative activity)",[10],0.47
same,"Relative Activity (cleavage of fluorogenic peptide-MCA, AMC liberated) (relative activity)",[11],1
same,Kcat (cleavage of peptide-MCA) (mol/min/mol of enzyme),[12],0.16
same,"Km (Lineweaver-Burk plot, cleavage of peptide-MCA)",[12],100 µM
same,"Vmax (Lineweaver-Burk plot, cleavage of peptide-MCA) (nmol/min/mg protein)",[12],1.6
